Experiment [1] has as its target T1, NKp30 on NK cells (UniProt O14931 19-201, limits assumed).
T1 sequence (looked up): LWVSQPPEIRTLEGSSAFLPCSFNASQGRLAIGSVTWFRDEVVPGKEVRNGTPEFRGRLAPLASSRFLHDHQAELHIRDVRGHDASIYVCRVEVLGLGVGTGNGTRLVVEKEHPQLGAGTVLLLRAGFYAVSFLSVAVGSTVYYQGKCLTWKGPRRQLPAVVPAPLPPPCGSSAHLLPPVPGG
Briefly: flow cytometry (y axis MFI, x axis in nM); the legend of FIGS. 3a-3h names a stable expression cell line; fit value of a flat curve, far outside the range tested. A general note: In flow cytometry, cells or beads pass a laser one at a time.

Experiment [2] addresses T2, human NKp30-his protein (KACTUS; Cat: NKP-HM430) (human, UniProt O14931 19-135, limits assumed).
T2 construct: Bought protein (KACTUS NKP-HM430); not shown: His tag
T2 sequence (looked up): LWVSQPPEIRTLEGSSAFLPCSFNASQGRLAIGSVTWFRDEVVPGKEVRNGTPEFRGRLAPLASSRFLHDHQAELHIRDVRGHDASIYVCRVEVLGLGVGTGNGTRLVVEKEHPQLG
Briefly: ELISA, Human-NKp30-His coated at 0.2 µg/mL, antibody from 10 µg/mL in 3-fold steps, goat anti-human Fc, OD450 (Example 11). As to the method:
(§1) Human-NKp30-His (purchased from KACTUS, item No. NKP-HM430) was diluted to 0.2 μg/mL with the coating solution (1×PBS, pH 7.4), and was coated into 96-well enzyme-labelled plates at 100 μL/well and allowed to stand overnight at 4° C. The coating solution was poured off, the plate was washed with 1×PBST at 300 μL/well, washed with a plate washer for 4 times, and patted dry on a plate paper. The plate was blocked with 3% skimmed milk powder at 300 μL/well, and incubated at 37° C. for 1 h. The blocking solution was poured off, washed with a plate washer for 4 times, and patted dry on a plate paper. The reference product and the test product were diluted with 3% skimmed milk powder to 10 μg/mL, and the initial concentration was diluted by 3 times. A total of 11 gradients were diluted, and another blank well was set, and only diluent was added. It was incubated at 37° C. and 100 μL/well for 1 h. Liquid in the wells was discarded, and washed with a plate washer for 4 times, and patted dry on a plate paper. The goat anti-human Fc was diluted with 3% skimmed milk powder at 1: 20,000 and 100 μL/well, and incubated at 37° C. for 1 h. The plate was washed with a plate washer for 6 times, and patted dry on a plate paper. TMB color developing solution was added at 100 μL/well, and wrapped with an aluminum foil, and the color was developed at 37° C. for 8 minutes, protected from light. The termination solution 1 M HCl was added at 100 μL/well to terminate the color development reaction. It was read at 450 nm on an enzyme-labeled instrument.
(In general: An ELISA detects its analyte on a solid surface through an enzyme-linked reagent.)

Experiment [3] deals with T1, NKp30 on NK cells. Briefly: flow cytometry (y axis MFI, x axis in nM); the legend of FIGS. 3a-3h names a stable expression cell line; Example 11 describes no cell assay.
Experiment [4] addresses T2, human NKp30-his protein (KACTUS; Cat: …). Briefly: ELISA, Human-NKp30-His coated at 0.2 µg/mL, antibody from 10 µg/mL in 3-fold steps, goat anti-human Fc, OD450 (Example 11). On the procedure: as §1
This is another data set of the same source.

Experiment [5] shares this target. Briefly: BLI (Octet Red96e), antibody captured on AHC sensor, 100 nM human NKp30-his in solution, 1:1 fit. On the procedure:
(§2) After equilibration of the AHC sensor with 0.02% PBST (0.02% Tween 20, pH 7.4, 1*PBS) as buffer for 60 s, the NKp30 antibody in the sample plate was immobilized for 300 s and second equilibration was performed for 180 s. […] human NKp30-his protein (KACTUS; Cat: NKP-HM430) was bound with NKp30 antibody for 300 s and then dissociated for 600 s. After dissociation, 10 mM glycine (pH 2.0) was used as regeneration buffer to regenerate for 30 s.
Subtract the result plot for reference channel H1 from the test result plot. The experimental data fit the 1:1 binding model. The molecular weight of 35 kDa was used to calculate the molar concentration of human NKp30 protein.
For orientation: BLI is a label-free optical method that tracks binding on a fibre tip over time.

The target is the same in experiment [6]. Briefly: BLI (Octet Red96e), method of Example 6: antibody on AHC sensor, human NKp30-his in solution; second run, Table 4 (Example 12 series with the CDR-modified and humanized variants). As to the method:
as §2
(§3) The affinity of the CDR-modified and humanized antibodies was tested according to the method of Example 6, and the results are shown in Table 4.

Experiment [7] has the same target. Briefly: BLI (Octet Red96e), method of Example 6: antibody on AHC sensor, human NKp30-his in solution. On the procedure: as §2, §3
Experiment [8] has the same target. Briefly: ELISA, Human-NKp30-His coated at 0.2 µg/mL, antibody from 10 µg/mL in 3-fold steps, goat anti-human Fc, OD450 (Example 11); the fit value lies above the highest concentration tested. On the procedure: as §1, with “TMB color developing solution was added at 100 μL/well, and wrapped with an aluminum foil, and the color was developed at 37° C. for 8 minutes, protected from light. The termination solution 1 M HCl was added at 100 μL/well to terminate the color development reaction.” left out

For experiment [9] the target is unchanged. Briefly: ELISA, Human-NKp30-His coated at 0.2 µg/mL, antibody from 10 µg/mL in 3-fold steps, goat anti-human Fc, OD450 (Example 11); the curve stays low: fitted plateau about OD450 0.25, highest point about 0.4 at 3.3 µg/mL, about 0.2 at 10 µg/mL. As to the method: as §1, with “TMB color developing solution was added at 100 μL/well, and wrapped with an aluminum foil, and the color was developed at 37° C. for 8 minutes, protected from light. The termination solution 1 M HCl was added at 100 μL/well to terminate the color development reaction.” left out

For experiment [10], the target named is T1, NKp30 on NK cells. Briefly: cell-based or functional assay.
Experiment [11] concerns the target T2, human NKp30-his protein (KACTUS; Cat: …). Briefly: ELISA, Human-NKp30-His coated at 0.2 µg/mL, antibody from 10 µg/mL in 3-fold steps, goat anti-human Fc, OD450 (Example 11). On the procedure: as §1, with “TMB color developing solution was added at 100 μL/well, and wrapped with an aluminum foil, and the color was developed at 37° C. for 8 minutes, protected from light. The termination solution 1 M HCl was added at 100 μL/well to terminate the color development reaction.” left out
This is another data set of the same source.

Residue numbers refer to the chain shown, from its start.

What is called EC50 is the concentration giving half of the maximal effect. A high value points to weaker potency. With isotype control antibody, the EC50 with NKp30 on NK cells [1] amounted to 241000 nM.

B1: antibody 23 (antibody, V domains shown)
VH: EVQLVESGGGLVQPGGSLRLSCAASGSIFSPNGIGWYRQAPGKLRELVAGITGNGLTDYADSVKGRFTISRDSAKNTVYLQMNSLKTEDTAVYYCNLLLNHAEWGQGTQVTVSS
notes: expressed in CHO cells; also called chimeric antibody 23
What is called EC50 (read off the curve) is the concentration at which the effect is half-maximal. Low values mean greater potency, high ones weaker potency. Usually Kd stands for the concentration at which binding is half-saturated. Regarding B1, the figures for the EC50 (in [2]; in the experiment with NKp30 on NK cells [3]; in experiment [4]) were 2.38 ng/mL, 0.658 nM and 7.46 ng/mL, respectively. The “EC50 (read off the curve)” value in experiment [4] was about 7 ng/mL. Also, the Kd in [5] came out at 2.34 nM; in experiment [6], 0.844 nM.

B2: antibody 23-hu49 (antibody, V domains shown)
VH: B1 VH with G33A, D61E, S73N, A74S, K86R, T87A, Q109L
For the molecule B2, the EC50 in experiment [2] is 2.27 ng/mL.

B3: antibody 23-hu48 (antibody, V domains shown)
VH: B1 VH with G33A, L44G, A49S, D61E, S73N, A74S, K86R, T87A, N96A, Q109L
B3 yielded a Kd in experiment [7] of 5.1 nM. In experiment [8], this molecule came in with an EC50 of 76200 ng/mL.

B4: antibody 23-hu52 (antibody, V domains shown)
VH: B1 VH with N32Q, L44G, A49S, D61E, S73N, A74S, K86R, T87A, N96A, Q109L
In turn, B4 gave an EC50 in experiment [9] of 230 ng/mL. Also, binding in experiment [7] was put at a Kd of 5.93 nM.

B5: antibody 23-p (antibody, V domains shown)
VH: B1 VH with D61E
In the case of B5, in [7], binding was characterised by a dissociation constant (Kd) of 1.27 nM. The molecule also came in with an EC50 with NKp30 on NK cells [3] of 0.493 nM.

B6: antibody 23-hu45 (antibody, V domains shown)
VH: B1 VH with D61E, S73N, A74S, K86R, T87A, Q109L
The molecule B6 displayed an EC50 in experiment [2] of 2.83 ng/mL. Besides, binding in experiment [7] was put at a Kd of 0.991 nM. Moreover, the “EC50 (read off the curve)” value in [4] is about 3 ng/mL.

B7: antibody 18-hu3 (antibody, V domains shown)
VH: EVQLVESGGGLVQPGGSLRLSCAASGIRFSIANMGWYRQAPGKLHEMVAGITSDGFTNYADSVKGRFTISRDNSKNTLYLQMNSLRAEDTAVYYCASFPTRHYWGQGTLVTVSS
notes: also called humanized antibody 18-hu3
Turning to B7, the “IFN-γ secretion by NK cells stimulated with plate-coated antibody, EC50” value with NKp30 on NK cells [10] is 8.83 nM. Further, the EC50 in experiment [4] turned out to be 8.48 ng/mL.

B8: antibody 18-hu4 (antibody, V domains shown)
VH: B7 VH with A96D
For B8, the EC50 in experiment [11] worked out at 17 ng/mL.

B9: antibody 18 (antibody, V domains shown)
VH: B7 VH with S25A, S74A, L78V, S84N, R86K, A87P, A96D, L109Q
notes: expressed in CHO cells; also called chimeric antibody 18
In the case of B9, the EC50 in experiment [11] was determined as 3.62 ng/mL; in experiment [4], 2.51 ng/mL. Binding in [5] was characterised by a dissociation constant (Kd) of 0.302 nM.

Source of the values: US20240150460A1 (SHENGHE CHINA BIOPHARMACEUTICAL, published 2024).
